From IntAct's records for PubMed 22139357

B1: Protein phosphatase 2C homolog 4 (Schizosaccharomyces pombe (strain ATCC 38366 / 972)), O14156 (parent)
chain: MSIRFLKRLRAPLYIQNAYCSKNYFYRSFIQYYSPSNGPYLKISMNKAPQSLGLCTARGDSPTNQDRMAYGYLNNLKDTTNRDSPFFYGLFDGHGGTECSEFLSTNLGKIIENQDLNDTEKILKEVHSVGGYMAGLKPPFSLRTVLQSRDEDLLWRARLYYSFLQADMDYLTNYARPSPDSAVPGAVGTVAIITSKNNLSYWESDSYIIHLAHVGDTRALLCDSRTGRAHRLTFQHHPADVEEARRLRRYNMGFSRDSFGQKRFAWVANTRSFGDGYKLKKLGVVAEPQLTSIHSLRDDWSFLTLLSDGITDVVSDDEVVDIIKLSESPQDAANNIIRYAQNVGAVDDITCLVVRLPGWKKRTINDFTKNLRLEKSAYHPRRS
partner: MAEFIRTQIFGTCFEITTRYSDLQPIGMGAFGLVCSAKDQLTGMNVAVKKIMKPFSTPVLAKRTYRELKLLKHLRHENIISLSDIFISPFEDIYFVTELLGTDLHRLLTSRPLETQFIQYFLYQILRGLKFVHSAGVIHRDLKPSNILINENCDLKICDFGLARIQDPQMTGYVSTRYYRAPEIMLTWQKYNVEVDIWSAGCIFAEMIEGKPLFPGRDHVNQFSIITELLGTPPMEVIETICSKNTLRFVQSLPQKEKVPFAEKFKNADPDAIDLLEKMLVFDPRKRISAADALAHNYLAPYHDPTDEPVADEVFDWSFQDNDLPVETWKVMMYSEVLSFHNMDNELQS

Tests used:
Settings in all cases: with hog1_schpo sty1, Q09892
hog1_schpo sty1, Q09892 [1] = variants of: B1
hog1_schpo sty1, Q09892 [2] = variants of: B1; remark: listed apart in the source
hog1_schpo sty1, Q09892 [3] = variants of: B1; remark: listed apart in the source

| Variant | effect of a mutation on the interaction (hog1_schpo sty1, Q09892 [1]) | effect of a mutation on the interaction (hog1_schpo sty1, Q09892 [2]) | effect of a mutation on the interaction (hog1_schpo sty1, Q09892 [3]) |
| --- | --- | --- | --- |
| MSIRFLKALRAPLYIQNAYCSKNYFYRSFIQYYSPSNGPYLKISMNKAPQSLGLCTARGDSPTNQDRMAYGYLNNLKDTTNRDSPFFYGLFDGHGGTECSEFLSTNLGKIIENQDLNDTEKILKEVHSVGGYMAGLKPPFSLRTVLQSRDEDLLWRARLYYSFLQADMDYLTNYARPSPDSAVPGAVGTVAIITSKNNLSYWESDSYIIHLAHVGDTRALLCDSRTGRAHRLTFQHHPADVEEARRLRRYNMGFSRDSFGQKRFAWVANTRSFGDGYKLKKLGVVAEPQLTSIHSLRDDWSFLTLLSDGITDVVSDDEVVDIIKLSESPQDAANNIIRYAQNVGAVDDITCLVVRLPGWKKRTINDFTKNLRLEKSAYHPRRS [R8A] | disrupting interaction | decreasing interaction | – |
| MSIRFLKRLAAPLYIQNAYCSKNYFYRSFIQYYSPSNGPYLKISMNKAPQSLGLCTARGDSPTNQDRMAYGYLNNLKDTTNRDSPFFYGLFDGHGGTECSEFLSTNLGKIIENQDLNDTEKILKEVHSVGGYMAGLKPPFSLRTVLQSRDEDLLWRARLYYSFLQADMDYLTNYARPSPDSAVPGAVGTVAIITSKNNLSYWESDSYIIHLAHVGDTRALLCDSRTGRAHRLTFQHHPADVEEARRLRRYNMGFSRDSFGQKRFAWVANTRSFGDGYKLKKLGVVAEPQLTSIHSLRDDWSFLTLLSDGITDVVSDDEVVDIIKLSESPQDAANNIIRYAQNVGAVDDITCLVVRLPGWKKRTINDFTKNLRLEKSAYHPRRS [R10A] | disrupting interaction | decreasing interaction | – |
| MSIRFLKRLRAPLYIQNAYCSKNYFYASFIQYYSPSNGPYLKISMNKAPQSLGLCTARGDSPTNQDRMAYGYLNNLKDTTNRDSPFFYGLFDGHGGTECSEFLSTNLGKIIENQDLNDTEKILKEVHSVGGYMAGLKPPFSLRTVLQSRDEDLLWRARLYYSFLQADMDYLTNYARPSPDSAVPGAVGTVAIITSKNNLSYWESDSYIIHLAHVGDTRALLCDSRTGRAHRLTFQHHPADVEEARRLRRYNMGFSRDSFGQKRFAWVANTRSFGDGYKLKKLGVVAEPQLTSIHSLRDDWSFLTLLSDGITDVVSDDEVVDIIKLSESPQDAANNIIRYAQNVGAVDDITCLVVRLPGWKKRTINDFTKNLRLEKSAYHPRRS [R27A] | disrupting interaction | – | decreasing interaction |
